What was measured:
[1] = tested on: high-threshold (HT) trigeminovascular neurons; test: Activation and sensitization of central trigeminovascular neurons by cortical spreading depression (CSD), HT neurons; format: in vivo, rat; settings: for firing of HT neurons before CSD: 30 mg/kg IV, 4 hours after treatment; for firing of HT neurons after CSD: 6 hours after treatment; for expected CSD-induced activation of the HT neurons: 30 mg/kg IV 4 hours before CSD
Description: (§1) Cortical spreading depression (CSD) was induced mechanically by inserting a glass micropipette (tip diameter 25 μm) about 1 mm into the visual cortex for 10 sec. At a propagation rate of 3-5 mm/min, a single wave of CSD was expected to enter the neuronal receptive field within 1-2 min of cortical stimulation. For verification of CSD, cortical activity was recorded (electrocorticogram) with a glass micropipette (0.9% saline, ˜1 megohm, 7 um tip) placed just below the surface of the cerebral cortex (approximately 100 μm). The electrocorticogram electrode was positioned about 6 mm anterior to the visual cortex.
It was diluted in saline to a final dose of 30 mg/kg and administered intravenously (bolus injection, total volume 0.6-0.7 ml). A corresponding human IgG2 isotype control antibody (isotype-conAb) was also diluted in saline to a final dose of 30 mg/kg and administered intravenously (bolus injection, total volume 1.6-2.0 ml).
The experimental protocol included two parts. The first part was designed to compare CGRP-mAb vs isotype-conAb effects on spontaneous and induced activity of naïve trigeminovascular neurons, and the second part was designed to test CGRP-mAb vs isotype-conAb effects on the activation and sensitization of trigeminovascular neurons by CSD. Both parts included sampling of WDR and HT neurons in male and female rats. In the first part, the baseline neuronal profile was established by (a) mapping the dural, cutaneous and corneal receptive field; (b) measuring responses (mean spikes/sec) to mechanical stimulation of the dura (with a fixed force), skin (brush, pressure, pinch) and cornea (brush), and (c) measuring spontaneous firing rate (recorded over 30 min prior to treatment). Once the baseline was established, CGRP-mAb or isotype-conAb were administered and receptive fields were remapped, neuronal responses to stimulation of the dura, skin and cornea were re-examined, and the spontaneous activity rate was re-sampled at 1, 2, 3, and 4 hours post-treatment. The resulting values for each measure were then compared with the respective baseline values obtained before treatment. In the second part, CSD was induced 4 hours after administration of CGRP-mAb or isotype-conAb and 2 hours later (i.e., 6 hours after treatment) receptive field size, spontaneous activity rate, and response magnitude to stimulation of the dura, skin and cornea were measured again. The resulting post-CSD values for each measure were then compared with the respective pre-CSD values obtained at the 4-hour post-treatment time. This part was initiated only in cases in which the physiological condition of the rats (heart rate, blood pressure, respiration, end tidal CO2) and the neuronal isolation signal (signal-to-noise ratio ≥1:3) were stable at the 4-hour post-treatment time point.
To calculate the response magnitude to each stimulus, the mean firing frequency occurring before the onset of the first stimulus (30 min for spontaneous activity, 10 sec for mechanical stimulation of the dura, skin and cornea) was subtracted from the mean firing frequency that occurred throughout the duration of each stimulus. […] A neuron was considered activated when its mean firing rate after CSD exceeded its mean baseline activity by 2 standard deviations of that mean for a period >10 min, which translated to ≥33% increase in activity. […] Mean firing rates of respective values were compared using nonparametric statistics (Wilcoxon signed-ranks test). Two-tailed level of significance was set at 0.05.

[2] = tested on: wide-dynamic range (WDR) trigeminovascular neurons; test: Activation of central trigeminovascular neurons by cortical spreading depression (CSD), WDR neurons; format: in vivo, rat
Description: as §1, with “cortex. […]” for “cortex.”
The experimental protocol included two parts. […] In the first part, the baseline neuronal profile was established by (a) mapping the dural, cutaneous and corneal receptive field; (b) measuring responses (mean spikes/sec) to mechanical stimulation of the dura (with a fixed force), skin (brush, pressure, pinch) and cornea (brush), and (c) measuring spontaneous firing rate (recorded over 30 min prior to treatment). […] In the second part, CSD was induced 4 hours after administration of CGRP-mAb or isotype-conAb and 2 hours later (i.e., 6 hours after treatment) receptive field size, spontaneous activity rate, and response magnitude to stimulation of the dura, skin and cornea were measured again. […]

[3] = tested on: first-order trigeminovascular neurons (A-delta and C-type meningeal nociceptors); test: Single-unit recording of first-order trigeminovascular neurons in the trigeminal ganglion activated by CSD; format: in vivo, rat
Description: CSD was induced by pinprick 4 hours after drug/isotype infusion.

[4] = target: T1, human α-CGRP fragments and variants (Homo sapiens, UniProt P06881); test: Biacore affinity of G1 Fab to human α-CGRP fragments and variants on chip; format: binding; settings: CGRP on chip: 38A (25-38A), 37° C.
T1 construct: host or cells: synthetic peptides
Description: Biacore assay for affinity determination. […] All Biacore assays were conducted in HBS-EP running buffer (10 mM HEPES pH 7.4, 150 mM NaCl, 3 mM EDTA, 0.005% v/v polysorbate P20). CGRP surfaces were prepared by diluting the N-biotinylated CGRP to a concentration of less than 0.001 mg/mL into HBS-EP buffer and injecting it across the SA sensor chip using variable contact times. Low capacity surfaces, corresponding to capture levels <50 response units (RU) were used for high-resolution kinetic studies, whereas high capacity surfaces (about 800 RU of captured CGRP) were used for concentration studies, screening, and solution affinity determinations. […] Samples were typically injected for lminute at 100 μL/min and dissociation times of at least 10 minutes were allowed. After each binding cycle, surfaces were regenerated with 25 mM NaOH in 25% v/v ethanol, which was tolerated over hundreds of cycles. An entire titration series (typically generated in duplicate) was fit globally to a 1:1 Langmuir binding model using the BlAevaluation program. This returned a unique pair of association and dissociation kinetic rate constants (respectively, kon and koff) for each binding interaction, whose ratio gave the equilibrium dissociation constant (KD=koff/[…]).

[5] = male and female rats, activated/tested

B1: fremanezumab (antibody)
heavy: EVQLVESGGGLVQPGGSLRLSCAASGFTFSNYWISWVRQAPGKGLEWVAEIRSESDASATHYAEAVKGRFTISRDNAKNSLYLQMNSLRAEDTAVYYCLAYFDYGLAIQNYWGQGTLVTVSSASTKGPSVFPLAPCSRSTSESTAALGCLVKDYFPEPVTVSWNSGALTSGVHTFPAVLQSSGLYSLSSVVTVPSSNFGTQTYTCNVDHKPSNTKVDKTVERKCCVECPPCPAPPVAGPSVFLFPPKPKDTLMISRTPEVTCVVVDVSHEDPEVQFNWYVDGVEVHNAKTKPREEQFNSTFRVVSVLTVVHQDWLNGKEYKCKVSNKGLPSSIEKTISKTKGQPREPQVYTLPPSREEMTKNQVSLTCLVKGFYPSDIAVEWESNGQPENNYKTTPPMLDSDGSFFLYSKLTVDKSRWQQGNVFSCSVMHEALHNHYTQKSLSLSPGK
light: EIVLTQSPATLSLSPGERATLSCKASKRVTTYVSWYQQKPGQAPRLLIYGASNRYLGIPARFSGSGSGTDFTLTISSLEPEDFAVYYCSQSYNYPYTFGQGTKLEIKRTVAAPSVFIFPPSDEQLKSGTASVVCLLNNFYPREAKVQWKVDNALQSGNSQESVTEQDSKDSTYSLSSTLTLSKADYEKHKVYACEVTHQGLSSPVTKSFNRGEC
notes: humanized anti-CGRP antagonist antibody, vectors ATCC PTA-6867 and PTA-6866
difference in HT neurons activated by CSD versus isotype-conAb ([1]; 2/14 versus 13/13): 86% | HT neuronal responses to dural indentation with VFH before CSD ([1]; female rats): 10.5±1.6 | HT neurons with expansion of dural receptive fields after CSD ([1]; female rats): 0/6 | HT neurons with expansion of facial receptive fields after CSD ([1]; female rats): 0/6 | firing of HT neurons before CSD ([1]; female rats, 6 HT neurons): 3.3±1.7 spikes/sec | firing of HT neurons after CSD ([1]; female rats, 6 HT neurons, 2 hours after CSD, p=0.45): 5.0±3.4 spikes/sec | HT neuronal response to brushing the cornea after CSD ([1]; female rats, 6 HT neurons, p=0.51): remained unchanged | expected CSD-induced activation of the HT neurons ([1]; female rats): prevented | HT neuronal responses to dural indentation with VFH after CSD ([1]; female rats, 2 hours after CSD, p=0.72): 8.1±6.4 | HT neuronal responses to brush, pressure and pinch of the skin after CSD ([1]; male and female rats, 2 hours after CSD, p=0.35, 0.63, 0.78): remained unchanged | HT neurons activated by CSD (case-by-case analysis) [1, 5]: 2/14 | HT neuronal responses to dural indentation with VFH before CSD ([1]; male rats): 1.8±0.6 | HT neurons with expansion of dural receptive fields after CSD ([1]; male rats): 2/8 | HT neurons with expansion of facial receptive fields after CSD ([1]; male rats): 2/8 | HT neuronal response to brushing the cornea before CSD ([1]; male rats, 8 HT neurons): 10.8±3.3 spikes/sec | firing of HT neurons before CSD ([1]; male rats, 8 HT neurons): 1.2±0.6 spikes/sec | firing of HT neurons after CSD ([1]; male rats, 8 HT neurons, 2 hours after CSD, p=0.29): 1.9±1.5 spikes/sec | HT neuronal response to brushing the cornea after CSD ([1]; male rats, 8 HT neurons, p=0.60): 9.4±1.8 spikes/sec | expected CSD-induced activation of the HT neurons ([1]; male rats): prevented | HT neuronal responses to dural indentation with VFH after CSD ([1]; male rats, 2 hours after CSD, p=0.83): 1.9±1.5 | difference in WDR neurons activated by CSD versus isotype-conAb ([2]; 5/13 versus 4/10): 2% | WDR neurons activated by CSD (case-by-case analysis) [2, 5]: 5/13 | activation of meningeal nociceptors by CSD ([3]; FIGS. 20A and 20B): prevents the activation of most a-delta and some C-type meningeal nociceptors | a-delta fibers activated by CSD ([3]; male rats, 30 mg/kg IV 4 hours before CSD, FIG. 21A): 14% | C-fibers activated by CSD ([3]; male rats, 30 mg/kg IV 4 hours before CSD, FIG. 21B): 23% | neurons tested that were activated by CSD ([3]; male rats, 30 mg/kg IV 4 hours before CSD, all neurons): 20% | KD [4]: No binding

Reference: patent US10766952B2, “Methods for reducing migraine frequency in a subject in need thereof” (Beth Israel Deaconess Medical Center, Inc., priority 2017, dated 2020)
